# Assay: soluble on expression in E. coli; label from the status in PepcDB or PDB records
row,Sequence,soluble on expression in E. coli
1,MRIGIVGAGLGGLLAGALLSKNHEVVVFEKLPFLGGRFTNLKYEGFQLTTGALHMIPHGNDGYLAQALRKAGANVKIINSKPDGTFLINGKEYLYKELFSLLGFKEKAKAFKLATKLKLGKVDKNISFGEFLEEIDLALKVGNAFTGWALSLTAYETPMSEIIEIAKNYHKFGGPGIPIGGCKAVTDELSRIIKKNNGKIIKEYEVKRIEIDEKAYIDDYEFDVVISNISPIETQKICNIKFLKSKPKPSKGIKISIATKEGIIKHGGVLFTPECERINGLNQVTNVDKSLAPEGWHLVMTHQTQLTNNVKKEIDLGLEDIENLFKGKDYKILHIQSYRDDWPVNHASNGTDIDNIVNDRFYLVGDGAKGRGGIEVEGIAMGVLKVVNYINSLLEHHHHHH,soluble
2,TTGNEPPVTQIVDKHRIALALGGGAARGWAHIGVLRALDEAGVKIGMIAGTSIGALVGGCYLAGKLDELEEFARSLTMRRIAGLLDLTIGGGGLFGGMRLTKRMQEHLEGLRVENLEHPFIAVATELRTGHEVWIHQGDLVTALRSSYALPGIFEPVQCNGRTLIDGALVNPVPVSVCRAYEQALVVAVNLNYDLFGRSA,not soluble
3,MNRIFCALMRADAARFREVVFPCALLQNHPHQFPHVLARLEFFAPPDQRNCLLLPRVLVKRSLAAKEPSKVNFLSVNLRKELHEEAKSSKKTNLK,not soluble
4,MSLKQFSPDKMLNTPFGITAAQLRKMGKTTILTDLDNTLLAWDQLDATDEVINWFTILKEEGIKVMIFSNNNEERVARVAKAIDVPYLARAKKPLGANFRWALKEMDATPEETVMIGDQIMTDIFGGNRQKLTTIFVRPVKQTDGMATKLNRMMESVILKRLAKKNQIKWEESEGHHHHHH,soluble
5,MGSDKIHHHHHHVSRSVSIYVCQSCGAQTRQFFGRCNNCGEWNSIIEEKINQKSDKSIYTKINSPKEKSPYRSELISQTKNQLIERISSGYKELDRVLGGGLVPGSLVLIGGDPGIGKSTLILQSATEMAHHKSVLYVAAEESAQQVKLRWNRIEDAESNLHLLAETDLEMVIKELDHLKPEVAVIDSIQALHDQSLSSSPGSVAQVRECSAALQQIAKRQNISLLIIGHVTKDGMLAGPKVLEHLVDAVLTFEGDRFASHRLLRGVKNRFGATSELGVFEMQADGLSEVPNPSELFLSKTSAPGISTIVTCEGTRPLAIDIQALLNPTSYASPRRTTTGIEINRLHQILAVLEKNMNLSLSRYDCYLAVAGGLEVEEPGADLGIAAAIVSSLKDIELEEGVVFIGEIGLAGQLRLVRQMQQRINEVIRLGYKTLIIPDGIDTSEFETNQKLKILKASNINQALIYALDNN,not soluble
6,HGTMEVPINRTYSCSKEGAESPKTPACQEAKRVGGTQAMYDWNGINQNPPGDNHQSVVPDGTLCGGGQAKFKGFNLARTDWPTTNIVPDAKGNFEFIYTATMPHATKYFKFYVTRNGWNPNQPLKWSDLEPFGTYNGNPPLDDKQRYHMTMKLPTGKTGRHIIYNVWKRSDSEEAFYSCSDVNFTN,not soluble
7,SLMLHAQHMPGQPGTPSLVFLHGFSGDCHEWQPVGEQFHGCSRLYIDLPGHGGSAAIPVDGFADVIRLLRATLISYNILKFWLVGYSLGGRVAMMAACQGIPGLCGLVVEGGHPGLQNEQARAERRLSDGRWAERFRHEPLTEVFHDWYQQPVFASLTAQQRQALTALRSQNNGETLAAMLEATSLAVQPDLREALNALAFPFYYLCGERDSKFRALAQEVAATCHVIRNAGHNAHRENPAGVVDSLAQILRL,soluble
8,MKDLDFSKKPLIGVVHLKPLPGSPRYGGDFEEVIEWAIRDAKTYEEAGFDGIIVENFGDSPFSKTLPREVIPAFTVVAKAVKKEVSLPLGINALRNDCIVAYSIAHAVGGSFIRVNVLTGVAFTDQGIIEGCARELWNVKRIIGGDILTLADVHVKHAVHFTNFEDAVKDTVERGLADGIIVTGRRTGESISLEDLILAKRVSSIPVLVGSGVNPRNFRTLFKYADGFIVGTWVKENGKINNPVSLERAKILVRMKNSLMGVLEHHHHHH,not soluble
9,MGSDKIHHHHHHMTNKVVNNDKISSVGIIGCGWLGSALAYQLKNQDIAVLATRSNIDNIEQLKSQGIEAEVLSLPAEQAQLNTHPIFKQQCLVIAITPQFRQGRVDYADKVQQLVESAKVGNCVEQIILLSSSAIYNGLSGDVEENSILDMSADKVSVLNQAEQAVLSFNHPGRNESRLNALNAEVGNKKAYVLRLSGLVGPKRHPGKFLLNGHMLKSPQAIVNLIHQQDAVGLIQTLLQSANCGGIFNGVSSTKVTKKQYYQAAASALQLPTPTFEEIELSEDNAPKVVSGKKTQAELAYEFVYDDLLAWLELAV,not soluble
10,MGSDKIHHHHHHMFMVKITILSPEGRSCSVWSLKNEIEKLGAKCDIFLLSSPENLMSHDFKLETDLIHSRCGIGDYFDRLTLYSWQFINALEVEGCRFINPIKTLYLTSDKFKCIKLLAKNKIKTPKTALIRDYEDAVKFIEKYNLRFPVVIKNSFSKCGLKVFMARNYDELKQLTKNAIWEGKLIQEFIDFKENDLYRDMRILVVDGEVVGGYRRVSRDFRTNLYLGNVVEKLNIDEELEELALKCADLSEAVILGVDILPTKDNYYVIELNSSPGTKGFRDIGINADKKIAEALVRYAKS,not soluble
11,MKIHHIGPMGVNPYQRQLAKTERLAAEKAPRDQVEISKEAKELQEAASWEQARQAKLEELRQQIENGAYQVDPRAVAKRMIEYYRNHR,not soluble
12,MKHHHHHHQGKITLYEDRGFQGRHYECSSDHTNLQPYLSRCNSARVDSGCWMLYEQPNYSGLQYFLRRGDYADHQQWMGLSDSVRSCRLIPHSGSHRIRLYEREDYRGQMIEFTEDCSCLQDRFRFNEIHSLNVLEGSWVLYELSNYRGRQYLLMPGDYRRYQDWGATNARVGSLRRVIDFS,soluble
13,MAHHHHHHSLKILFVAAEGAPFAKTGGLGDVIGALPKSLVKNNNEVSVILPYYDVVDAKFGDQIEDLFYFFTNVGWRREYVGIKHIFRDGVDFYFIDNKHYFYRGQIYGEFDDGERFAYFQLAALEAMEKIQFIPDILHVHDYHTAMIPYLLKEKYHWINAYHGIKTVFTIHNIEFQGQFNPSMLGELFGVGDERYRDGTLRWNDCLNWMKAAVLYADRVTTVSPSYAKEIMTPEFGKGLDQIMRMESGKLSGVVNGIDTDLFDPETDPHLAVHFSKDDLSGKAKNKAALQERVGLPVREDVPLVGIVSRLTDQKGFQLVVDQLNTMMQLDLQIVLLGTGYADFENAFAWFGHAYPDKMSANITFDLELAQQIYAASDIFLMPSAFEPCGLSQMMAMRYGTLPLVHEVGGLRDTVIPYNEFEKTGTGFGFQDFSGYWLTKTLEAALDVYYNRKEDWKILQKNAMTTDFSWDTASQSYEHLYKELAEG,soluble
14,MGSDKIHHHHHHAQSDGWSPKDHNLIKSVREDGRFLSSYGVVHAMLRNTEPRYAFHRDFSPKEFRKWQKGLRHAMEEIMKFPQIKNSPAPVCIKREQREGYRLEKWEFYPLPKCVSTFLVLIPDNINKPVPAILCIPGSGGNKEGLAGEPGIAPKLNDRYKDPKLTQALNFVKEGYIAVAVDNPAAGEASDLERYTLGSNYDYDVVSRYLLELGWSYLGYASYLDMQVLNWMKTQKHIRKDRIVVSGFSLGTEPMMVLGTLDTSIYAFVYNDFLCQTQERAEVMTMPDKNGRRPFPNSIRHLIPDFWKNFNFPDIVAALAPRPIILTEGGLDRDLDLVRKAYAIVGTPDNVKIYHYKKFSDPDTRKNVEYLPEGLDRNEYFRMVNVDGPNHYFKSELVVPWLRKLLEER,not soluble
15,PWTQNKRNLKHLNQLKEDILNNFEDLKLKDEKIIVMLSGGKDSAVSLAVAKELGLNVHLCVHFVHKWSWDISTNEAKKLADRFNIPIIFPNVTEELAKKTQGAKGKSICRICKTIMKARMIDIAKEENAKIIMTGETALEKIAGPVFQYIRENNTNVKRKDEFELYKKMEITKVPKRYKIHFFRPLIRVGHFDVFNLQKYYNIDIKRVSE,not soluble
16,MYVCHFENCGKAFKKHNQLKVHQFSHTQQLPYECPHEGCDKRFSLPSRLKRHEKVHAGYPCKKDDSCSFVGKTWTLYLKHVAECHQD,soluble
17,MSLEKKFVIWGRNPIIEALRAGRNLEKIYVAHDSHPPKELLELAKKRGVKVQRISRKKVEELAGTKKTQGVVALLSPVNYVSPHELFKECIEKKSFFIVIDHITDPQNVGNLLRTCEVLGGVGALISKDRTSPINETVVKASSGAVFHLKISKVSSLSRELKNFQKMGGWVFAVEKGGKDIREVDIPLPVALVLGSEDKGVSKSVLDISDQIVTIPMKGKVTSLNVGSAGAIAMWETAKKILEGHHHHHH,soluble
